In paper PMC8109025 (Bioconjugate chemistry, 2020):

What was measured:
[1] = target: 1N:1E nanobody-enzyme megamolecule (one cutinase-5F7 nanobody fusion covalently linked to one SnapTag-yCD fusion) (yeast); test: SEC
[2] = target: 1N:1E nanobody-enzyme megamolecule (one cutinase-5F7 nanobody fusion covalently linked to one SnapTag-yCD fusion) (yeast); test: negative-stain transmission electron microscopy
[3] = target: 1N:1E nanobody-enzyme megamolecule (one cutinase-5F7 nanobody fusion covalently linked to one SnapTag-yCD fusion) (yeast); test: enzyme activity against protein concentration
[4] = target: 2N:1E nanobody-enzyme megamolecule (two cutinase-5F7 nanobody fusions covalently linked to one SnapTag-yCD fusion) (yeast); test: SEC
[5] = target: 2N:1E nanobody-enzyme megamolecule (two cutinase-5F7 nanobody fusions covalently linked to one SnapTag-yCD fusion) (yeast); test: negative-stain transmission electron microscopy
SEC = target: the molecule itself; test: SEC
[6] = target: the molecule itself; test: enzyme activity against protein concentration

1N:1E nanobody-enzyme megamolecule (one cutinase-5F7 nanobody fusion covalently linked to one SnapTag-yCD fusion)
stoichiometry N [1]: 2 | stoichiometry N [2]: 2 | Kd [3]: 38 µM

2N:1E nanobody-enzyme megamolecule (two cutinase-5F7 nanobody fusions covalently linked to one SnapTag-yCD fusion)
stoichiometry N [4]: 2 | stoichiometry N [5]: 2

B1: SnapTag-yeast cytosine deaminase fusion protein (enzyme, UniProt Q12178 1-158, looked up)
chain: MVTGGMASKWDQKGMDIAYEEAALGYKEGGVPIGGCLINNKDGSVLGRGHNMRFQKGSATLHGEISTLENCGRLEGKVYKDTTLYTTLSPCDMCTGAIIMYGIPRCVVGENVNFKSKGEKYLQTRGHEVVVVDDERCKKIMKQFIDERPQDWFEDIGE
stoichiometry N (SEC): 2 | Kd [6]: 12 µM
